According to the supplement of paper PMC6757056:
± gives the standard deviation of the averaged measurements.

B1: library; a variant is named by its letters at N, in order (parent)
chain: GCUGUCACCGGUGCUUGGUACGUUAUAUUCAGCCGGUCUGAUGAGUCUNNNNNNAGACGAAACAGC

Key:
(6R,S)-folinic acid [1] = variants of: B1; test: normalized RNA/DNA level without ligand (relative to sTRSVctl = 100) (log10 (% of sTRSVctl)); HEK293T overexpressing SLC46A1; higher = less ribozyme self-cleavage, higher mRNA level; conditions: without (6R,S)-folinic acid; ligand present: no
In short: (§1)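 HEK293T cells received ligand, where used, 1 h before being transfected with 4 µg per 6-well well of library plasmids encoding reporter-linked ribozyme switches. After 72 h, RNA was extracted with EDTA and sequenced. RNA level was derived from RNA reads per DNA read, normalized to a spiked-in non-cleaving sequence or the top sequences, then scaled and log-transformed. Values were ×100 then log10, the top set was 25 sequences, and the minimum was 100 DNA reads.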

(6R,S)-folinic acid [2] = variants of: B1; test: normalized RNA/DNA level with ligand (relative to sTRSVctl = 100) (log10 (% of sTRSVctl)); HEK293T overexpressing SLC46A1; ligand concentration (+) RNA-Seq: 6 mM; higher = less ribozyme self-cleavage, higher mRNA level; conditions: with (6R,S)-folinic acid; ligand present: yes
In short: as §1

Variant | normalized RNA/DNA level without ligand (log10) ((6R,S)-folinic acid [1]) | normalized RNA/DNA level with ligand (log10) ((6R,S)-folinic acid [2])
GUUGAU | 1.97 ± 0.021 | 2.003 ± 0.019
AUUCGU | 1.99 ± 0.0072 | 1.97 ± 0.057
AUUCGC | 2.039 ± 0.0092 | 2.06 ± 0.041
AUUCGA | 1.992 ± 0.0073 | 2.03 ± 0.035
AUUCGG | 1.952 ± 0.017 | 2.04 ± 0.026
CUUGUC | 2.091 ± 0.018 | 2.06 ± 0.027
CUUGUU | 2.02 ± 0.03 | 1.995 ± 0.018
CUUGUA | 2.027 ± 0.018 | 2.036 ± 0.013
GUUUCA | 2.03 ± 0.034 | 1.99 ± 0.04
GUUUCC | 2.021 ± 0.015 | 2 ± 0.068
GUUUCG | 1.99 ± 0.027 | 1.99 ± 0.039
GUUUCU | 1.965 ± 0.012 | 1.97 ± 0.068
AUUCCU | 2.044 ± 0.0048 | 2.047 ± 0.018
AUUGAU | 1.93 ± 0.0058 | 2.01 ± 0.036
AUUGAC | 1.99 ± 0.016 | 1.97 ± 0.046
AUUGCU | 2.015 ± 0.0026 | 1.979 ± 0.012
AUUGCA | 1.976 ± 0.0096 | 1.98 ± 0.05
AUUGCC | 2.02 ± 0.029 | 2.02 ± 0.055
CUUCUC | 2.05 ± 0.0097 | 2.02 ± 0.056
CUUCUG | 2.06 ± 0.021 | 2.026 ± 0.0091
CUUCUU | 2.016 ± 0.0066 | 1.97 ± 0.025
CUUCUA | 2.0515 ± 0.00054 | 2.083 ± 0.015

Variant | normalized RNA/DNA level without ligand (log10) ((6R,S)-folinic acid [1]) | normalized RNA/DNA level with ligand (log10) ((6R,S)-folinic acid [2])
UUUCUU | 2.043 ± 0.0064 | 2.02 ± 0.021
UUUCUA | 2.019 ± 0.011 | 2.042 ± 0.0037
UUUCUC | 2.118 ± 0.0058 | 2.062 ± 0.014
UUUGGC | 1.995 ± 0.0079 | 2.04 ± 0.027
UUUGGU | 1.953 ± 0.013 | 1.98 ± 0.071
GUUUUU | 2.015 ± 0.0093 | 2 ± 0.02
GUUUUG | 2.007 ± 0.0091 | 2.02 ± 0.049
AUUGUU | 1.988 ± 0.0071 | 1.998 ± 0.008
AUUGUC | 2.06 ± 0.038 | 2.05 ± 0.066
AUUGUA | 1.941 ± 0.016 | 2 ± 0.02
GUUCGA | 2.018 ± 0.0029 | 2.001 ± 0.015
GUUCGU | 1.998 ± 0.019 | 2.01 ± 0.035
UUUGUU | 1.944 ± 0.0033 | 1.99 ± 0.032
UUUGUG | 1.73 ± 0.051 | 1.95 ± 0.046
UUUGUC | 2.069 ± 0.018 | 2.034 ± 0.02
UUUGUA | 1.959 ± 0.0085 | 2.007 ± 0.014
UUUCGC | 2.01 ± 0.016 | 2 ± 0.011
UUUCGG | 1.9984 ± 0.00042 | 1.99 ± 0.022
UUUCGA | 2.0498 ± 0.00034 | 2.04 ± 0.024
UUUCGU | 1.98 ± 0.017 | 2.01 ± 0.012
AUUCUU | 2.02 ± 0.027 | 2.04 ± 0.023
AUUCUA | 2.005 ± 0.0047 | 1.999 ± 0.01

Variant | normalized RNA/DNA level without ligand (log10) ((6R,S)-folinic acid [1]) | normalized RNA/DNA level with ligand (log10) ((6R,S)-folinic acid [2])
AUUCUC | 2.072 ± 0.012 | 2.04 ± 0.042
AUUCUG | 1.94 ± 0.011 | 1.99 ± 0.043
GUUCCU | 2.03 ± 0.0037 | 2.04 ± 0.045
UUUCCU | 2.0566 ± 0.0006 | 2.058 ± 0.018
GUUGUC | 2.02 ± 0.025 | 2.021 ± 0.019
GUUGUU | 2.03 ± 0.021 | 2.035 ± 0.018
AUUUCU | 2.03 ± 0.025 | 2.034 ± 0.019
AUUUCG | 1.961 ± 0.016 | 2 ± 0.026
AUUUCC | 2.048 ± 0.0099 | 2.037 ± 0.01
AUUUCA | 2.036 ± 0.012 | 2.01 ± 0.026
AUUGGG | 1.7701 ± 0.00019 | 1.99 ± 0.033
AUUGGC | 2.011 ± 0.012 | 2.05 ± 0.012
AUUGGU | 1.884 ± 0.011 | 1.99 ± 0.056
GUUCUG | 1.981 ± 0.015 | 1.987 ± 0.014
GUUCUU | 2.0414 ± 0.0017 | 2.04 ± 0.028
GUUCUC | 2.112 ± 0.0075 | 2.076 ± 0.02
GUUUAA | 1.989 ± 0.0071 | 1.99 ± 0.025
GUUUAC | 2.02 ± 0.028 | 2.016 ± 0.002
GUUUAU | 1.99 ± 0.02 | 1.99 ± 0.031
CUUGCG | 2.03 ± 0.017 | 2.01 ± 0.029
